B1: TPR t1 (parent)
chain: GACCAAUCUGCCCUCAGAGCUCGAGAACAUCUUCGGAUGCAGAGGAGGCAGGCUUCGGUGGCGCGAUAGCGCCAACGUCCUCAACCUCCAAUGCAUCCCACCACAUGAUGAUGCCUGAAGAGCCUUGGUUUUUUG

This note sets out measurements from the RNAGym collection of RNA variant scans (doi:10.1073/pnas.2313332121).

In the series the parent is B1. Briefly: polymerase ribozyme fitness, log enrichment relative to wild type (log ratio); higher = more active; in vitro selection for triplet polymerase activity. Summed up: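 Mutant libraries for each subunit of a heterodimeric triplet polymerase ribozyme were made by PCR and then transcribed. Each library underwent one round of in vitro selection in triplicate: annealing with a biotinylated primer, the partner subunit and triplets, frozen incubation at −7 °C, gel excision of extended constructs, streptavidin-bead capture and RT-PCR. Input and output libraries were Illumina-sequenced, and only genotypes with ≥10 input reads and ≥1 read per output were kept. Fitness is the logarithm, base 2, of genotype enrichment over wild-type enrichment, computed from inverse-variance-weighted replicate averages.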
For the variant C8G C11U C124A, the “polymerase ribozyme fitness (log ratio)” value came to 2.24.
Then U7G G71U C115A, with 1.44; and C8G A50C C73U G93A, with -0.0523.
Next, U7G U92A: -2.22; C8A G19A A50G U54A A103C G120C: -5.02.
C8U A27C G63C C79A A119G: the “polymerase ribozyme fitness (log ratio)” value was -4.92.
Next, C8A A46C C56G G127A: -3.01; U7G U59G C62U A84C A90U A111U C115A: -5.26; C8G C49G A50U C79U U131C: -2.75.
Next, U7G C20U G60C U133G: -1.91; C8G G36A A74U A90G: -0.292.
As to C8A C22G G63U U129G, the “polymerase ribozyme fitness (log ratio)” value is -3.84.
Take C8G G52U G60A U96G: the “polymerase ribozyme fitness (log ratio)” value is -0.693.
Then C8G C15A C20U C56A G57U, with -1.84.
As to C8G G44C G60A, the “polymerase ribozyme fitness (log ratio)” value was 0.198.
On to U7G C13U A84U U96A A121C, for which the “polymerase ribozyme fitness (log ratio)” value was 0.875.
Then C8A A24G U32A C73G A111G, with -4.24.
Then C8U A24G G36A G44U C72U, with -2.98; and C8A C13U C31A G61U U96A C124G, with -5.55.
Consider C8G G19U G71A G113A U130C, for which the “polymerase ribozyme fitness (log ratio)” value is -2.08.
For the variant C8G C62U C99U, the “polymerase ribozyme fitness (log ratio)” value was -2.93.
Consider C8A C97A G120C, for which the “polymerase ribozyme fitness (log ratio)” value is -3.2.
Then C8A G93A, with -0.248; and C8U A26U C62U G93A, with -2.86; and C8G C102U U106C, with -0.803.
Next, C8G A41G C53G G93U: -0.406; C8A G36U G69A C88A C115U U131G: -6.31; C8G G19A G69U C79U A111G U129C U133A: -1.15.
Next, C8A G48C C49U C62A C94A: -3.22; C8G U54G: 0.644; C8A A50U C89A A90G: -2.46.
For C8G U9G C28G G42U G48U U55A C104U G120C, the “polymerase ribozyme fitness (log ratio)” value is -3.54.
Then U7G G39A C62G C114G, with -6.04.
Then C8G G17U U81A U87C U96C G113A, with -4.04; and U7G C49U C80U A111C, with -4.73; and C8A G25U A26C C40U G63U C88G U112C C123A C124A U130A, with -7.64.
Then C8A C12G C64A C123A, with -6.53; and C8G A46G, with 0.594; and C8A G122A, with 0.24.
Consider C8A G35C G71A, for which the “polymerase ribozyme fitness (log ratio)” value is -5.94.
Then C8G A90G G113U G117A G127A, with -6.12.
Then C8A G51C C73U C94U U130G, with -3.59; and C8G U125A, with 0.0447; and C8A G63A A83C C86U, with -0.491.
Then C8A U112C A121G, with 2.38; and C8G G135U, with -0.819.
Turning to C8A C15G C64U C82G C89A U109A, the “polymerase ribozyme fitness (log ratio)” value was -6.66.
Next, U7G U132C: 0.108; C8A G39A C79U: 0.0227; C8G C70U C80A C94G: -5.61.
Then C8A G120A, with 1.88; and U7G G48U C53U A95C G117A, with -1.11.
Consider U7G G117U, for which the “polymerase ribozyme fitness (log ratio)” value is -2.24.
Next, U7G C15A G58C: -0.977; C8A C88A: 0.0973.
Then C8A A26U C115U, with -5.1; and C8A G45C A50C G57C G93C, with -2.56; and C8G C124G, with 1.92.
Next, U7G G51C U55C: -2.32.
In the case of C8G C11U G120A, the “polymerase ribozyme fitness (log ratio)” value was 2.17.
Next, C8G G71A C82U C101A: -1.2; U7G G58C U106A G128A: -0.568; C8A C28U G52U G117C C124A G128A U133A: -6.69.
On to C8G A50U U54C U106A G117A, for which the “polymerase ribozyme fitness (log ratio)” value is -0.842.
Consider C8A G58C U112C A121G, for which the “polymerase ribozyme fitness (log ratio)” value was 1.27.
Then C8G C15U C70U, with -0.473; and C8G C11G C53U C62U U81G C102A, with -4.4.
Next, U7G G10C G45A G47A U59G G77A: -1.37.
Then U7G G10U C15A C56A G63C C64A C114A A121U C123G, with -6.92; and C8G C15U U54G G117C, with 0.947; and U7G G117C G122U, with -4.49.
C8G C101G G128U: the “polymerase ribozyme fitness (log ratio)” value is -3.26.
Next, U7G U78G C80G G135U: -5.8.
Next, U7G G17U A27C C53U C56A: -4.57.
Next, U7G G65A: -4.77; C8G C12G G44C U96A: -0.546; U7G C15U C20U: -1.35.
Consider C8A A108G, for which the “polymerase ribozyme fitness (log ratio)” value was -1.84.
As for U7G C15A U38C C40G A41U G48U G69A C89A U96G C98U A111G, the “polymerase ribozyme fitness (log ratio)” value was -7.66.
As to C8A U54G A105G U112A C123G C124A U132C, the “polymerase ribozyme fitness (log ratio)” value is -1.56.
Next, C8A C70U C88U: -0.306.
Then C8G C97G, with -3.25; and C8A G10U C73A, with -0.361.
